Data from patent US12456543B2, “Enzymes” (UNIVERSITY COURT OF THE UNIVERSITY OF ST ANDREWS, priority 2018, dated 2025).

Assays:
[1] = engineered to expand substrate scope; cited from earlier work
[2] = Halogenase activity of Dsg205 and Dsg701 against 600 member compound library, LC-MSMS assay; type: biochemical; details: 600 member compound library
[3] = Halogenation of the initial 300 compound library by purified halogenase, LCMS; type: biochemical; details: out of 300 compounds

B1: PrnA: tryptophan 7-halogenase, first step in pyrrolnitrin biosynthesis (protein, UniProt P95480 1-538, looked up)
Tryptophan 7-halogenase PrnA: MNKPIKNIVIVGGGTAGWMAASYLVRALQQQANITLIESAAIPRIGVGEATIPSLQKVFFDFLGIPEREWMPQVNGAFKAAIKFVNWRKSPDPSRDDHFYHLFGNVPNCDGVPLTHYWLRKREQGFQQPMEYACYPQPGALDGKLAPCLSDGTRQMSHAWHFDAHLVADFLKRWAVERGVNRVVDEVVDVRLNNRGYISNLLTKEGRTLEADLFIDCSGMRGLLINQALKEPFIDMSDYLLCDSAVASAVPNDDARDGVEPYTSSIAMNSGWTWKIPMLGRFGSGYVFSSHFTSRDQATADFLKLWGLSDNQPLNQIKFRVGRNKRAWVNNCVSIGLSSCFLEPLESTGIYFIYAALYQLVKHFPDTSFDPRLSDAFNAEIVHMFDDCRDFVQAHYFTTSRDDTPFWLANRHDLRLSDAIKEKVQRYKAGLPLTTTSFDDSTYYETFDYEFKNFWLNGNYYCIFAGLGMLPDRSLPLLQHRPESIEKAEAMFASIRREAERLRTSLPTNYDYLRSLRDGDAGLSRGQRGPKLAAQESL
[1]
  yields after directed evolution and rational design: 15-65%

B2: Dsg205: halogenase from Trichoderma virens Gy29-8 GenBank: EHK23009.1 (protein)
chain: MAIPEKCTVLVVGGGPAGSYAAAALAREGIDTVILEADKFPRYHIGESMLASMRHFLRFIDVDSVFDSYGFTKKVGAAFKLNPKKREGYTDFLAAGGPENYAWNVVRSEADQLLFQHAAKSGAKAFDGVQVKSINFIDVPYKGPGQLPHDYPGRPVSATYVQKDDNTPREIKFDYIIDASGRVGILSTKHLKNRKYNQGLKNVATWGYWKGAGAYGKGTPRENSPFFEALQDESGWAWLIPLHNGTASVGIVMNQKMSVERKTQAGSPDSKTFYLDCLKELAPDLTKLMENGELITDIKSAADYSYSASGYAIPYARIAGDAGCFIDPYFSSGVHLAFVGGLSAAATIAAAIRGDCSEEAAADWHSKKIADAYIRFLLVVLSAYRQIRSQEEPVLSDINEDNFDRAFAFFRPVIQGIADVDTKLSQDELRKTLEFCSNAFEPVKPEDRTAMLEKLGKDPATAYQVDLSDQQRTVVDHIRARQMMRTEDTININSFGTDSINGFVPNLKRGELGLVPAKV
modifications: left off: small tags and cut ends
[2]
  members of the library halogenated (substrates accepted): 33
[3]
  compounds of the initial 300 compound library halogenated: 3
